# Test results from patent US11066455B2, “Tmem100 peptides and variants thereof and their use in treating or preventing diseases or conditions” (The Johns Hopkins University, priority 2014, dated 2021).
# Key:
# [1] = system: TRPV1; assay: Cell-attached single-channel recording in CHO cells, CAP-induced activity (NPo); assay type: cell-based; settings: Vh=-60 mV
# Method: Recordings were made in cell-attached single-channel or whole-cell voltage clamp configurations at 22-24° C. from the somata of small-to-medium mouse DRG neurons (15-35 pF) or CHO cells. For whole-cell configuration, holding potential (Vh) is −60 mV. Data were acquired and analyzed using an Axopatch 200B amplifier and pCLAMP9.0 software (Molecular Devices, Sunnyvale, Calif.). Borosilicate pipettes (Sutter, Novato, Calif.) were pulled and polished to resistances of 3-5 MΩ (in whole-cell and single-channel pipette solutions). Access resistance (Rs) was compensated (40-80%) when appropriate up to the value 7-10 MΩ for whole-cell configuration. Whole-cell recording data were filtered at 0.5 kHz and sampled at 2 kHz. Single-channels currents were filtered with an 8-pole, low pass Bessel filter at 0.1 kHz and sampled at 0.5 kHz, since dwelling time (τ) of the TRPA1 and TRPV1 single-currents were >0.5 sec. Whole-cell recorded data were rejected when Rs changed >20% during recording, leak currents were >100 pA, or input resistance was <200 MΩ.
# Single-channel unitary current (i) was determined from the best-fit Gaussian distribution of amplitude histograms. Single-channel activity was analyzed as NPo=I/i, where I is the mean total current in a patch and i is unitary current at this voltage. For single channel slope conductances, linear fitting was used separately for positive and negative holding potentials. The slope conductances presented in figures were determined from fitting negative hold potentials (from −60 to 0 mV). The single-channel recording data were analyzed with Clampfit 9 software. This has an “event detection analysis” function that analyzes current traces and determines the number of channels in the patch (N), how many sub-conductances are present, and what the main conductance is. In order to increase the accuracy of the Po measurement, only patches containing fewer than 3 channels were used. For patches containing both TRPA1 and TRPV1, only those with equal numbers of TRPA1 and TRPV1 were used. This was monitored in each recording by applying MO and then CAP.
# Standard external solution (SES) for whole-cell patch recording contained (in mM): 140 NaCl, 5 KCl, 2 CaCl2, 1 MgCl2, 10 D-glucose and 10 HEPES, pH 7.4. Vehicle, which is 0.01% DMSO, was added to external solutions. The bath solution for single-channel recording (SES-SCh) of TRP currents consisted of (in mM): 100 K-gluconate, 4 KCl, 1 MgCl2, 1 EGTA, 10 D-glucose and 10 Hepes (pH 7.3). The standard pipette solution (SIS) for the whole-cell configurations contained (in mM): 140 KCl, 1 MgCl2, 1 CaCl2, 10 EGTA, 10 D-glucose, 10 HEPES, pH 7.3. […] The baseline activities of the cells were recorded for 1-2 min prior drug applications. […]
# [2] = system: TRPA1-V1 complex; assay: FRET with TIRF microscopy of TRPV1-CFP and TRPA1-YFP in COS-7 cells; assay type: cell-based; settings: compared to cells expressing only TRPA1-V1
# Source text: Expression vectors of pEYFP-TRPA1 (YFP on C-terminal part), pECFP-TRPV1 (CFP on C-terminal part), and pEYFP-N1 were transfected into COS-7 cells with FuGENE HD (Promega E2311), as previously described (Staruschenko et al., 2010). COS-7 cells were chosen since they have flat morphology and thus suitable for TIRF-FRET analysis. Moreover, previously it has been shown that CHO and COS cells express TRPA1 and TRPV1 to the same level (Staruschenko et al., 2010). Data from fixed cells were collected in separate facilities at University of Texas Health Science Center, San Antonio, and the Johns Hopkins University, respectively. […] Briefly, two days after transfection, the cells were fixed for 15 min with 4% paraformaldehyde in PBS and then imaged at the room temperature using total internal reflection fluorescence (TIRF) (also called evanescent-field) microscopy on an inverted Nikon Eclipse TE200U microscope equipped with a plain Apo TIRF 60× oil-immersion, high-resolution (1.45 NA) objective. […] Fluorescence images were collected and processed with a 16-bit, cooled charge-coupled device camera (Cascade 512F; Roper Scientific Inc.) interfaced to a PC running Metamorph software.
# Each cell was photobleached by argon-ion laser (514 nm) at full power for 2 min. […] All images were analyzed in ImageJ. […]
# [3] = co-expressed with TRPA1+TRPV1 (1:1:4) in CHO cells
# [4] = co-expressed with TRPV1 only (1:4) in CHO cells
Molecule,"CAP (100 nM)-induced single-channel activity (NPo) [1, 3]","CAP (100 nM)-induced single-channel activity (NPo) [1, 4]",enhancement of the TRPA1-TRPV1 interaction (FRET efficiency) [2],decrease of TRPA1-V1 FRET efficiency [2]
"Tmem100-3Q mutant (full-length, mouse) (protein) MTEESTKENLGAPKSPTPVTMEKNPKREVVVTTGPLVSEVQLMAATGGAELSCYRCIIPFAVVVFITGIVVTAVAYSFNSHGSIISIFGLVLLSSGLFLLASSALCWKVRQRNKKVQQQESQTALVVNQRCLFA",1.08±0.17,0.73±0.12,43%,
"Tmem100: 134-amino acid two-transmembrane protein, regulator of TRPA1 (SEQ ID NO: 1/2), expressed in cells (protein, listed as Homo sapiens, listed as Mus musculus) chain 1: MTEEPIKEILGAPKAHMAATMEKSPKSEVVITTVPLVSEIQLMAATGGTELSCYRCIIPFAVVVFIAGIVVTAVAYSFNSHGSIISIFGLVVLSSGLFLLASSALCWKVRQRSKKAKRRESQTALVANQRSLFA chain 2: MTEESTKENLGAPKSPTPVTMEKNPKREVVVTTGPLVSEVQLMAATGGAELSCYRCIIPFAVVVFITGIVVTAVAYSFNSHGSIISIFGLVLLSSGLFLLASSALCWKVRQRNKKVKRRESQTALVVNQRCLFA",0.82±0.14,0.45±0.1,,34%
